# Reference: the supplement of paper PMC10567573
# B1: KCNA4 (parent)
# chain: YQSGGRLKRPVNVPFDIFTEEVKF
# Variants of: B1
# Experiment: protein stability index of a GFP-peptide fusion (GPS, HEK-293T) (PSI 1-6); higher = more stable
# Conditions: c terminus: a fixed tail appended
# 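Note: lentivirally expressed fusions sorted by FACS into six bins by GFP to DsRed ratio, PSI derived from sequencing read proportions per bin multiplied by bin number.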
row,Variant,protein stability index
1,YQSGGRLKRPVNVKFDIFTEEVKF,1.71
2,YQSGGRLKRPVNVYFDIFTEEVKF,2.7
3,YQSGGRLKRPVNVQFDIFTEEVKF,3.33
4,YQSGGRLKRPVNVRFDIFTEEVKF,2.19
5,YQSGGRLKRPVNVTFDIFTEEVKF,1.51
6,YQSGGRLKRPVNVAFDIFTEEVKF,1.37
7,YQSGGRLKRPVNVIFDIFTEEVKF,3
8,YQSGGRLKRPVNVCFDIFTEEVKF,2.19
9,YQSGGRLKRPVNVGFDIFTEEVKF,2.98
10,YQSGGRLKRPVNVVFDIFTEEVKF,1.56
11,YQSGGRLKRPVNVNFDIFTEEVKF,2.07
12,YQSGGRLKRPVNVDFDIFTEEVKF,2.28
13,YQSGGRLKRPVNVHFDIFTEEVKF,1.86
14,YQSGGRLKRPVNVEFDIFTEEVKF,1.42
15,YQSGGRLKRPVNVLFDIFTEEVKF,1.91
16,YQSGGRLKRPVNVSFDIFTEEVKF,1.9
17,YQSGGRLKRPNNVPFDIFTEEVKF,2.74
18,YQSGGRLKRPTNVPFDIFTEEVKF,2.15
19,YQSGGRLKRPQNVPFDIFTEEVKF,2.36
20,YQSGGRLKRPRNVPFDIFTEEVKF,1.81
21,YQSGGRLKRPPNVPFDIFTEEVKF,1.82
22,YQSGGRLKRPYNVPFDIFTEEVKF,2.06
23,YQSGGRLKRPVNVPYDIFTEEVKF,1.56
24,YQSGGRLKRPVNVPPDIFTEEVKF,2.01

row,Variant,protein stability index
1,YQSGGRLKRPVNVPDDIFTEEVKF,2.6
2,YQSGGRLKRPVNVPLDIFTEEVKF,2.15
3,YQSGGRLKRPVNVPTDIFTEEVKF,2.22
4,YQSGGRLKRPVNVPMDIFTEEVKF,3
5,YQSGGRLKRPVNVPNDIFTEEVKF,1.88
6,YQSGGRLKRPVNVPEDIFTEEVKF,2.75
7,YQSGGRLKRPVNVPIDIFTEEVKF,2.45
8,YQSGGRLKRPVNVPWDIFTEEVKF,2.12
9,YQSGGRLKRPVNVPGDIFTEEVKF,1.98
10,YQSGGRLKRPVNVPSDIFTEEVKF,1.94
11,YQSGGRLKRPVNVPRDIFTEEVKF,2.83
12,YQSGGRLKRPVNVPHDIFTEEVKF,2.47
13,YQSGGRLKRPVNVPKDIFTEEVKF,2.1
14,YQSGGRLKRPVNVPCDIFTEEVKF,2.41
15,YQSGGRLKRPVNVPFDIFTEEDKF,2.09
16,YQSGGRLKRPVNVPFDIFTEEAKF,1.58
17,YQSGGRLKRPVNVPFDIFTEETKF,1.96
18,YQSGGRLKRPVNVPFDIFTEEIKF,1.38
19,YQSGGRLKRPVNVPFDIFTEENKF,1.83
20,YQSGGRLKRPVNVPFDIFTEECKF,1.54
21,YQSGGRLKRPVNVPFDIFTEEHKF,1.86
22,YQSGGRLKRPVNVPFDIFTEEPKF,1.54
23,YQSGGRLKRPVNVPFDIFTEEKKF,1.59
24,YQSGGRLKRPVNVPFDIFTEEFKF,2.06

row,Variant,protein stability index
1,YQSGGRLKRPVNVPFDIFTEERKF,1.48
2,YQSGGRLKRPVNVPFDIFTEEYKF,2.25
3,YQSGGRLKRPVNVPFDIFTEEGKF,2.34
4,YQSGGRLKRPVNVPFDIFTEESKF,2
5,YQSGGRLKRPVNVPFDIFTEELKF,1.99
6,YQSGGRLKRPVNVPFDIFTEEEKF,2.77
7,YQSGGRLKRPVNVPFDIFTEEQKF,2.08
8,YQSGGRLKRPVNVPFNIFTEEVKF,2.03
9,YQSGGRLKRPVNVPFHIFTEEVKF,1.08
10,YQSGGRLKRPVNVPFPIFTEEVKF,1.52
11,YQSGGRLKRPVNVPFTIFTEEVKF,1.29
12,YQSGGRLKRPVNVPFMIFTEEVKF,1.54
13,YQSGGRLKRPVNVPFYIFTEEVKF,2.11
14,YQSGGRLKRPVNVPFRIFTEEVKF,2.48
15,YQSGGRLKRPVNVPFWIFTEEVKF,2.98
16,YQSGGRLKRPVNVPFLIFTEEVKF,1.85
17,YQSGGRLKRPVNVPFAIFTEEVKF,1.83
18,YQSGGRLKRPVNVPFVIFTEEVKF,1.55
19,YQSGGRLKRPVNVPFSIFTEEVKF,1.21
20,YQSGGRLKRPVNVPFCIFTEEVKF,1.1
21,YQSGGRLKRPVNVPFEIFTEEVKF,2.08
22,YQSGGRLKRPVNVPFKIFTEEVKF,1.57
23,YQSGGRLKRPVNVPFDIFTIEVKF,1.47
24,YQSGGRLKRPVNVPFDIFTNEVKF,2.12

row,Variant,protein stability index
1,YQSGGRLKRPVNVPFDIFTDEVKF,2.57
2,YQSGGRLKRPVNVPFDIFTKEVKF,1.7
3,YQSGGRLKRPVNVPFDIFTGEVKF,1.57
4,YQSGGRLKRPVNVPFDIFTPEVKF,2.11
5,YQSGGRLKRPVNVPFDIFTREVKF,1.31
6,YQSGGRLKRPVNVPFDIFTSEVKF,1.92
7,YQSGGRLKRPVNVPFDIFTTEVKF,1.53
8,YQSGGRLKRPVNVPFDIFTCEVKF,2.11
9,YQSGGRLKRPVNVPFDIFTQEVKF,1.44
10,YQSGGRLKRPVNVPFDIFTHEVKF,1.43
11,YQSGGRLKRPVNTPFDIFTEEVKF,1.51
12,YQSGGRLKRPVNKPFDIFTEEVKF,2
13,YQSGGRLKRPVNQPFDIFTEEVKF,1.66
14,YQSGGRLKRPVNMPFDIFTEEVKF,1.61
15,YQSGGRLKRPVNIPFDIFTEEVKF,1.75
16,YQSGGRLKRPVNRPFDIFTEEVKF,2.25
17,YQSGGRLKRPVNYPFDIFTEEVKF,1.88
18,YQSGGRLKRPVNDPFDIFTEEVKF,1.55
19,YQSGGRLKRPVNFPFDIFTEEVKF,1.52
20,YQSGGRLKRPVNPPFDIFTEEVKF,1.53
21,YQSGGRLKRPVNAPFDIFTEEVKF,1.47
22,YQSGGRLKRPVNCPFDIFTEEVKF,2.18
